{
  "source": "paper PMC3656109",
  "molecules": {"B1": {"name": "EphA1-Fc (Fc fusion)", "chain": "KEVTLMDTSKAQGELGWLLDPPKDGWSEQQQILNGTPLYMYQDCPMQGRRDTDHWLRSNWIYRGEEASRVHVELQFTVRDCKSFPGGAGPLGCKETFNLLYMESDQDVGIQLRRPLFQKVTTVAADQSFTIRDLVSGSVKLNVERCSLGRLTRRGLYLAFHNPGACVALVSVRVFYQRCPETLNGLAQFPDTLPGPAGLVEVAGTCLPHARASPRPSGAPRMHCSPDGEWLVPVGRCHCEPGYEEGGSGEACVACPSGSYRMDMDTPHCLTCPQQSTAESEGATICTCESGHYRAPGEGPQVACTGPPSAPRNLSFSASGTQLSLRWEPPADTGGRQDVRYSVRCSQCQGTAQDGGPCQPCGVGVHFSPGARGLTTPAVHVNGLEPYANYTFNVEAQNGVSGLGSSGHASTSVSISMGHAESLSGLSLRLVKKEPRQLELTWAGSRPRSPGANLTYELHVLNQDEERYQMVLEPRVLLTELQPDTTYIVRVRMLTPLGPGPFSPDHEFRTSPPVSRGLTGGE"}, "B2": {"name": "EphB3-Fc (Fc fusion)", "chain": "GCRALEETLMDTKWVTSELAWTSHPESGWEEVSGYDEAMNPIRTYQVCNVRESSQNNWLRTGFIWRRDVQRVYVELKFTVRDCNSIPNIPGSCKETFNLFYYEADSDVASASSPFWMENPYVKVDTIAPDESFSRLDAGRVNTKVRSFGPLSKAGFYLAFQDQGACMSLISVRAFYKKCASTTAGFALFPETLTGAEPTSLVIAPGTCIPNAVEVSVPLKLYCNGDGEWMVPVGACTCATGHEPAAKESQCRPCPPGSYKAKQGEGPCLPCPPNSRTTSPAASICTCHNNFYRADSDSADSACTTVPSPPRGVISNVNETSLILEWSEPRDLGGRDDLLYNVICKKCHGAGGASACSRCDDNVEFVPRQLGLTERRVHISHLLAHTRYTFEVQAVNGVSGKSPLPPRYAAVNITTNQAAPSEVPTLRLHSSSGSSLTLSWAPPERPNGVILDYEMKYFEKSEGIASTVTSQMNSVQLDGLRPDARYVVQVRARTVAGYGQYSRPAEFETTSERGSGAQQLQEQLPL"}},
  "key": {"[1]": {"target": "KSHV gH (V5 epitope-tagged)/gL complex (Kaposi's sarcoma-associated herpesvirus (KSHV, HHV-8)) (UniProt F5HAK9)", "sequence (F5HAK9 whole entry, looked up, one chain of several)": "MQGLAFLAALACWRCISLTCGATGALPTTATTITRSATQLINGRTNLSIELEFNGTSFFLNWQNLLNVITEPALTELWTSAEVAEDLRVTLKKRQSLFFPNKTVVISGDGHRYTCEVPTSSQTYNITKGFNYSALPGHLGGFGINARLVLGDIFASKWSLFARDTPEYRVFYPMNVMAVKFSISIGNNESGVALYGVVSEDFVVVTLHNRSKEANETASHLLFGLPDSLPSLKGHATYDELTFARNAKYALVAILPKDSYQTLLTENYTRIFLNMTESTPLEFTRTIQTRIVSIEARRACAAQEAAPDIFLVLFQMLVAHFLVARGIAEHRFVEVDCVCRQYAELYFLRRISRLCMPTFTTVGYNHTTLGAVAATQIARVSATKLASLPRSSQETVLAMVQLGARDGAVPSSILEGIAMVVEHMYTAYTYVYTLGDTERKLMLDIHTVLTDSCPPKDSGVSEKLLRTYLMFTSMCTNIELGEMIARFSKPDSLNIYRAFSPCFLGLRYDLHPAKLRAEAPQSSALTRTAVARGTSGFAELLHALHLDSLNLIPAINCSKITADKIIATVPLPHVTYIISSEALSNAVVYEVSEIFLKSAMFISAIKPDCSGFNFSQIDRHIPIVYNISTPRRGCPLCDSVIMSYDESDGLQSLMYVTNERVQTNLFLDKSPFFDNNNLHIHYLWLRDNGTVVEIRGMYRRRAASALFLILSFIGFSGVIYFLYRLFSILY"}, "[2]": {"target": "RRV 26-95 gH (V5 epitope-tagged)/gL complex (rhesus monkey rhadinovirus (RRV) strain 26-95)"}},
  "data": [
    {"molecule": "EphA7-Fc (from UniProt Q15375 28-555) (Fc fusion)", "values": [
      {"measurement": "entry of KSHV into rhesus fibroblasts after pre-incubation of the virus with EphA7-Fc (1 to 20 µg/ml; no block at 1 µg/ml, value at 20 µg/ml)", "setting": "[1]", "result": -35, "unit": "%"}
    ]},
    {"molecule": "B1", "values": [
      {"measurement": "entry of KSHV into rhesus fibroblasts after pre-incubation of the virus with EphA1-Fc (1 to 20 µg/ml; no block at 1 µg/ml, value at 20 µg/ml)", "setting": "[1]", "result": -22, "unit": "%"}
    ]},
    {"molecule": "B2", "values": [
      {"measurement": "decrease in nuclear accumulation of the RRV genome in HUVEC four hours post infection (real-time PCR) in the presence of 5 µg/ml EphB3-Fc", "setting": "[2]", "result": 74, "unit": "%"}
    ]}
  ]
}
